Results: patent US20150344570A1 (published 2015)

T1: FcγRIIa R (FcγRIIa allotype with Arg at position 131), extracellular domain with C-terminal His tag (human, UniProt P12318 34-217)
T1 construct: extracellular domain; made in FreeStyle293 cells; analyte in the Biacore assay; also called FcγRIIa type R; 2aR
T1 sequence (looked up): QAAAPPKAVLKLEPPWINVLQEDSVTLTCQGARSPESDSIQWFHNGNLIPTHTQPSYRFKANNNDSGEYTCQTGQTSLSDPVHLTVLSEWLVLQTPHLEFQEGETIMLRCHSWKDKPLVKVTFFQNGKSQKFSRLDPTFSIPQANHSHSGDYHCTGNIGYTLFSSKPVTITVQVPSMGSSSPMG

T2: FcγRIIb, extracellular domain with C-terminal His tag (human, UniProt P31994 43-217)
T2 construct: extracellular domain; made in FreeStyle293 cells; analyte in the Biacore assay; also called 2b; FcgRIIb
T2 sequence (looked up): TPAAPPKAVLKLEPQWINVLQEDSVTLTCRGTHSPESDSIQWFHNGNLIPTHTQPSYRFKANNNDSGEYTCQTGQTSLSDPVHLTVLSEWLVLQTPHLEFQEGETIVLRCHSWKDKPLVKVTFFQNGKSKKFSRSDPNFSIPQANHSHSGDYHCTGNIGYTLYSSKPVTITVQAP

B1: GpH7-A5/GpH7-B3 variant T335_12R/GpL16-k0 (antibody, human IgG1, kappa)
heavy 1: not shown
heavy 2: not shown
light: DIVMTQSPLSLPVTPGEPASISCQASESLVHSNRNTYLHWYLQKPGQSPQLLIYKVSNRFSGVPDRFSGSGSGTDFTLKISRVEAEDVGVYYCSQNTHVPPTFGQGTKVEIERTVAAPSVFIFPPSDEQLKSGTASVVCLLNNFYPREAKVQWKVDNALQSGNSQESVTEQDSKDSTYSLSSTLTLSKADYEKHKVYACEVTHQGLSSPVTKSFNRGEC
notes: heterodimerized IgG1, mutation in one H chain only; also called He Ab
B2: GpH7-A5/GpH7-B3 variant Y296_07I/GpL16-k0 (antibody, human IgG1, kappa)
heavy 1: not shown
heavy 2: not shown
light: B1 light
notes: as for B1
B3: GpH7-A5/GpH7-B3 variant T335_05P/GpL16-k0 (antibody, human IgG1, kappa)
heavy 1: not shown
heavy 2: not shown
light: B1 light
notes: as for B1
B4: GpH7-A5/GpH7-B3 variant S337_03V/GpL16-k0 (antibody, human IgG1, kappa)
heavy 1: not shown
heavy 2: not shown
light: B1 light
notes: as for B1
B5: GpH7-A5/GpH7-B3 variant S337_19Q/GpL16-k0 (antibody, human IgG1, kappa)
heavy 1: not shown
heavy 2: not shown
light: B1 light
notes: as for B1
B6: GpH7-A5/GpH7-B3 variant T335_01G/GpL16-k0 (antibody, human IgG1, kappa)
heavy 1: not shown
heavy 2: not shown
light: B1 light
notes: as for B1
B7: GpH7-A5/GpH7-B3 variant T335_02A/GpL16-k0 (antibody, human IgG1, kappa)
heavy 1: not shown
heavy 2: not shown
light: B1 light
notes: as for B1
B8: GpH7-A5/GpH7-B3 variant Y296_14T/GpL16-k0 (antibody, human IgG1, kappa)
heavy 1: not shown
heavy 2: not shown
light: B1 light
notes: as for B1
B9: GpH7-A5/GpH7-B3 variant T335_06M/GpL16-k0 (antibody, human IgG1, kappa)
heavy 1: not shown
heavy 2: not shown
light: B1 light
notes: as for B1
B10: GpH7-A5/GpH7-B3 variant Y296_06M/GpL16-k0 (antibody, human IgG1, kappa)
heavy 1: not shown
heavy 2: not shown
light: B1 light
notes: as for B1
B11: GpH7-A5/GpH7-B3 variant S324_04F/GpL16-k0 (antibody, human IgG1, kappa)
heavy 1: not shown
heavy 2: not shown
light: B1 light
notes: as for B1
B12: GpH7-A5/GpH7-B3 variant S337_12R/GpL16-k0 (antibody, human IgG1, kappa)
heavy 1: not shown
heavy 2: not shown
light: B1 light
notes: as for B1
B13: GpH7-A5/GpH7-B3 variant Y296_16H/GpL16-k0 (antibody, human IgG1, kappa)
heavy 1: not shown
heavy 2: not shown
light: B1 light
notes: as for B1
B14: GpH7-A5/GpH7-B3 variant S337_02A/GpL16-k0 (antibody, human IgG1, kappa)
heavy 1: not shown
heavy 2: not shown
light: B1 light
notes: as for B1
B15: GpH7-A5/GpH7-B3 variant Y296_09D/GpL16-k0 (antibody, human IgG1, kappa)
heavy 1: not shown
heavy 2: not shown
light: B1 light
notes: as for B1
B16: GpH7-A5/GpH7-B3 variant Y296_18N/GpL16-k0 (antibody, human IgG1, kappa)
heavy 1: not shown
heavy 2: not shown
light: B1 light
notes: as for B1
B17: GpH7-A5/GpH7-B3 variant Y296_13S/GpL16-k0 (antibody, human IgG1, kappa)
heavy 1: not shown
heavy 2: not shown
light: B1 light
notes: as for B1
B18: GpH7-A5/GpH7-B3 variant Y296_10E/GpL16-k0 (antibody, human IgG1, kappa)
heavy 1: not shown
heavy 2: not shown
light: B1 light
notes: as for B1
B19: GpH7-A5/GpH7-B3 variant S337_04F/GpL16-k0 (antibody, human IgG1, kappa)
heavy 1: not shown
heavy 2: not shown
light: B1 light
notes: as for B1

Biological target: T1, FcγRIIa R (FcγRIIa allotype with Arg at …)
Assay: SPR (Biacore), antibody captured, FcγR analyte; vs GpH7-A5/GpH7-B3/GpL16-k0 = 100
Procedure: (§1) The heterodimerized antibodies He Abs in which one of the H chains was introduced with an alteration were assayed for their binding activities to each activating FcγR and inhibitory FcγR according to the method described in Example 4. […] The activating FcγRs in FIGS. 26, 27, 28, and 29 are FcγRIa, FcγRIIa (R), FcγRIIa (H), and FcγRIIIa, respectively.
(§2) Analysis of interaction between objective antibody and the FcγR was carried out using Biacore T100 (GE Healthcare). HBS-EP+ (GE Healthcare) was used as the running buffer, and the measurement temperature was set to 25° C. Chips produced by immobilizing the antigen peptide by the amine coupling method to a Series S Sencor Chip CM5 (GE Healthcare), or alternatively, chips produced by allowing preliminarily biotinylated antigen peptides to interact with and immobilize onto a Series S Sensor Chip SA (certified) (GE Healthcare) were used. Antibodies of interest were captured onto an antigen peptide-immobilized chip, and allowed to interact to each FcγR diluted with running buffer. To regenerate and repeatedly use the chip, the antibodies captured on the chip were washed off by reacting 10 mM glycine-HCl, pH 1.5.

| He/Con_2aR | Binder |
| --- | --- |
| 100 relative (HeCon Ab = 100) | B1 |
| 101 relative (HeCon Ab = 100) | B2 |
| 104 relative (HeCon Ab = 100) | B3 |
| 106 relative (HeCon Ab = 100) | B4 |
| 106 relative (HeCon Ab = 100) | B5 |
| 104 relative (HeCon Ab = 100) | B6 |
| 102 relative (HeCon Ab = 100) | B7 |
| 103 relative (HeCon Ab = 100) | B8 |
| 105 relative (HeCon Ab = 100) | B9 |
| 101 relative (HeCon Ab = 100) | B10 |
| 104 relative (HeCon Ab = 100) | B11 |
| 107 relative (HeCon Ab = 100) | B12 |
| 105 relative (HeCon Ab = 100) | B13 |
| 105 relative (HeCon Ab = 100) | B14 |
| 106 relative (HeCon Ab = 100) | B15 |
| 104 relative (HeCon Ab = 100) | B16 |
| 102 relative (HeCon Ab = 100) | B17 |
| 103 relative (HeCon Ab = 100) | B18 |
| 105 relative (HeCon Ab = 100) | B19 |

Biological target: T2, FcγRIIb, extracellular domain with …
Assay: as above
Procedure: as §1, §2

| He/Con_2b | Binder |
| --- | --- |
| 91.9 relative (HeCon Ab = 100) | B1 |
| 84.3 relative (HeCon Ab = 100) | B2 |
| 99.9 relative (HeCon Ab = 100) | B3 |
| 98.9 relative (HeCon Ab = 100) | B4 |
| 99.7 relative (HeCon Ab = 100) | B5 |
| 96.7 relative (HeCon Ab = 100) | B6 |
| 94 relative (HeCon Ab = 100) | B7 |
| 88.2 relative (HeCon Ab = 100) | B8 |
| 99.4 relative (HeCon Ab = 100) | B9 |
| 87.8 relative (HeCon Ab = 100) | B10 |
| 89.1 relative (HeCon Ab = 100) | B11 |
| 99.5 relative (HeCon Ab = 100) | B12 |
| 92.2 relative (HeCon Ab = 100) | B13 |
| 97.2 relative (HeCon Ab = 100) | B14 |
| 98.9 relative (HeCon Ab = 100) | B15 |
| 91.5 relative (HeCon Ab = 100) | B16 |
| 86.3 relative (HeCon Ab = 100) | B17 |
| 98 relative (HeCon Ab = 100) | B18 |
| 97.8 relative (HeCon Ab = 100) | B19 |
